{
  "source": "the RNAGym collection of RNA variant scans (doi:10.1073/pnas.2313332121)",
  "parents": {"B1": {"name": "TPR t1 (parent)", "chain": "GACCAAUCUGCCCUCAGAGCUCGAGAACAUCUUCGGAUGCAGAGGAGGCAGGCUUCGGUGGCGCGAUAGCGCCAACGUCCUCAACCUCCAAUGCAUCCCACCACAUGAUGAUGCCUGAAGAGCCUUGGUUUUUUG"}},
  "data": [
    {"variants_of": "B1", "experiment": "polymerase ribozyme fitness, log enrichment relative to wild type (log ratio); higher = more active; in vitro selection for triplet polymerase activity", "method_in_brief": "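Mutant libraries were PCR-built and transcribed for each subunit of a heterodimeric triplet polymerase ribozyme and selected for one round in triplicate at −7 °C, frozen, before gel excision of extended constructs and streptavidin-bead capture. Input and output libraries were Illumina-sequenced, keeping genotypes with ≥10 input reads and ≥1 read per output. Fitness is a logarithmic ratio of genotype to wild-type enrichment, in base 2, using inverse-variance-weighted replicate averages.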", "values": [
      {"variant": "A90C U106A A108G", "polymerase ribozyme fitness (log ratio)": -2.24},
      {"variant": "U21G C62A C124A U131A", "polymerase ribozyme fitness (log ratio)": -1.77},
      {"variant": "C8A C15U A46U A118G", "polymerase ribozyme fitness (log ratio)": -1.21},
      {"variant": "C101U U109G A111U", "polymerase ribozyme fitness (log ratio)": -4.63},
      {"variant": "C4U A66G C124G", "polymerase ribozyme fitness (log ratio)": 0.544},
      {"variant": "A2G G60C G71U A91C G120C", "polymerase ribozyme fitness (log ratio)": -6.25},
      {"variant": "A46C U87A G93C C115A U116C A119C", "polymerase ribozyme fitness (log ratio)": -3.74},
      {"variant": "G42C C62G", "polymerase ribozyme fitness (log ratio)": -4.74},
      {"variant": "C8G C64U G135U", "polymerase ribozyme fitness (log ratio)": 0.0899},
      {"variant": "C49U A50C", "polymerase ribozyme fitness (log ratio)": -0.544},
      {"variant": "A29C G61A A75U", "polymerase ribozyme fitness (log ratio)": -1.75},
      {"variant": "C13A G71A A74C G128A", "polymerase ribozyme fitness (log ratio)": -5.69},
      {"variant": "A119U C123A", "polymerase ribozyme fitness (log ratio)": -0.124},
      {"variant": "A50C G107A", "polymerase ribozyme fitness (log ratio)": -6.09},
      {"variant": "G58U G63A C82A C97U G110A", "polymerase ribozyme fitness (log ratio)": -4.64},
      {"variant": "A6U C62A", "polymerase ribozyme fitness (log ratio)": -1.01},
      {"variant": "C73A G93A U131G", "polymerase ribozyme fitness (log ratio)": -0.498},
      {"variant": "C3A C8G A37G G93A", "polymerase ribozyme fitness (log ratio)": -0.343},
      {"variant": "U14A G61C", "polymerase ribozyme fitness (log ratio)": -3.93},
      {"variant": "G17A C53U C89U C101A U109G", "polymerase ribozyme fitness (log ratio)": -6.85},
      {"variant": "C53A G60C", "polymerase ribozyme fitness (log ratio)": -2.24},
      {"variant": "C11G A50C C72A U92G C114A G122C U131C", "polymerase ribozyme fitness (log ratio)": -3.27},
      {"variant": "C53G G117A U132A", "polymerase ribozyme fitness (log ratio)": -1.03},
      {"variant": "C11G A16G G60A C64U G110A A118G", "polymerase ribozyme fitness (log ratio)": -6.79},
      {"variant": "C56U C99A", "polymerase ribozyme fitness (log ratio)": -6.27},
      {"variant": "U9C U67C C82G U109C", "polymerase ribozyme fitness (log ratio)": -6.64},
      {"variant": "G19U G69A U106C C114A G120C", "polymerase ribozyme fitness (log ratio)": -2.51},
      {"variant": "G10U U87A U92C A121G U132C", "polymerase ribozyme fitness (log ratio)": 1.22},
      {"variant": "G61U C73U A121G", "polymerase ribozyme fitness (log ratio)": 0.407},
      {"variant": "U55G G63A U81C", "polymerase ribozyme fitness (log ratio)": -3.9},
      {"variant": "G44U U78C A108G", "polymerase ribozyme fitness (log ratio)": -4.95},
      {"variant": "G42U G71A U92A", "polymerase ribozyme fitness (log ratio)": -3.78},
      {"variant": "U9G C62U", "polymerase ribozyme fitness (log ratio)": -0.19},
      {"variant": "A41G G44A C123U", "polymerase ribozyme fitness (log ratio)": 0.224},
      {"variant": "C3U C15U G39C", "polymerase ribozyme fitness (log ratio)": -2.34},
      {"variant": "A16G G60A U81A G117U", "polymerase ribozyme fitness (log ratio)": -4.21},
      {"variant": "C11A A46C G61U C94A", "polymerase ribozyme fitness (log ratio)": -2.34},
      {"variant": "G63A C73A C114G", "polymerase ribozyme fitness (log ratio)": -5.85},
      {"variant": "C11A G71U", "polymerase ribozyme fitness (log ratio)": -1.08},
      {"variant": "A5G C12A U132A U133A", "polymerase ribozyme fitness (log ratio)": -1.41},
      {"variant": "C13U C15G C88A U96C", "polymerase ribozyme fitness (log ratio)": -2.33},
      {"variant": "C3G A50C C73A A95U", "polymerase ribozyme fitness (log ratio)": -2.64},
      {"variant": "G63C C79G", "polymerase ribozyme fitness (log ratio)": -0.109},
      {"variant": "C34U C101A", "polymerase ribozyme fitness (log ratio)": -4.07},
      {"variant": "C20A G57U C97A C115A U116C", "polymerase ribozyme fitness (log ratio)": -6.48},
      {"variant": "C53G C97U A118U", "polymerase ribozyme fitness (log ratio)": -0.0977},
      {"variant": "A2U G47A C72A A121G", "polymerase ribozyme fitness (log ratio)": -0.127},
      {"variant": "G71U U81G U112A", "polymerase ribozyme fitness (log ratio)": -5.24},
      {"variant": "G25U C72U C88A U109C A119U C123U", "polymerase ribozyme fitness (log ratio)": -8.09},
      {"variant": "C99A U132C", "polymerase ribozyme fitness (log ratio)": -4.94},
      {"variant": "G52A G69C C85A G122A U133A", "polymerase ribozyme fitness (log ratio)": -4.36},
      {"variant": "U32C G63U G113U", "polymerase ribozyme fitness (log ratio)": -4.99},
      {"variant": "G48C C72U A90G U132A", "polymerase ribozyme fitness (log ratio)": -0.935},
      {"variant": "C56A U112G", "polymerase ribozyme fitness (log ratio)": -0.994},
      {"variant": "C22G C97A", "polymerase ribozyme fitness (log ratio)": -5.26},
      {"variant": "A41C C123A", "polymerase ribozyme fitness (log ratio)": -0.408},
      {"variant": "G52C G63A C102U C104A", "polymerase ribozyme fitness (log ratio)": -3.27},
      {"variant": "G122A U130A", "polymerase ribozyme fitness (log ratio)": -0.49},
      {"variant": "G48U C89A U130A", "polymerase ribozyme fitness (log ratio)": -2.33},
      {"variant": "C8G C15U A18C C53A U55A C56G", "polymerase ribozyme fitness (log ratio)": -1.96},
      {"variant": "G36U A91U", "polymerase ribozyme fitness (log ratio)": -2.67},
      {"variant": "C56U C62A", "polymerase ribozyme fitness (log ratio)": -5.47},
      {"variant": "G71U U116C", "polymerase ribozyme fitness (log ratio)": -0.726},
      {"variant": "C11U U54C G63U C85A", "polymerase ribozyme fitness (log ratio)": -2.46},
      {"variant": "U9A U78C U96A C124U", "polymerase ribozyme fitness (log ratio)": 1.26},
      {"variant": "G44C G61U C102A", "polymerase ribozyme fitness (log ratio)": -2.81},
      {"variant": "A18U G42U G69A A100U C114A G128U", "polymerase ribozyme fitness (log ratio)": -7.14},
      {"variant": "C80U G113U", "polymerase ribozyme fitness (log ratio)": -3.41},
      {"variant": "A5U A26G", "polymerase ribozyme fitness (log ratio)": -2.87},
      {"variant": "C40G C115U", "polymerase ribozyme fitness (log ratio)": -2.07},
      {"variant": "C73U C115G", "polymerase ribozyme fitness (log ratio)": -1.77},
      {"variant": "C34U C70U", "polymerase ribozyme fitness (log ratio)": -5.65},
      {"variant": "C56U G69C", "polymerase ribozyme fitness (log ratio)": -4.69},
      {"variant": "C13U A100U C101U C104U A121C", "polymerase ribozyme fitness (log ratio)": 1.33},
      {"variant": "C4A A119U", "polymerase ribozyme fitness (log ratio)": -1.66},
      {"variant": "A18U C72G U130A", "polymerase ribozyme fitness (log ratio)": -4.54},
      {"variant": "U54C A84G C88A C98U", "polymerase ribozyme fitness (log ratio)": -1.69},
      {"variant": "A16C C79U U87A C124U", "polymerase ribozyme fitness (log ratio)": -0.106},
      {"variant": "G39U C80U C101A A111U", "polymerase ribozyme fitness (log ratio)": -5.03},
      {"variant": "G39U G117U A118C", "polymerase ribozyme fitness (log ratio)": -4.29},
      {"variant": "C101A U106C G110C U134G", "polymerase ribozyme fitness (log ratio)": -4.82},
      {"variant": "C62U A84C", "polymerase ribozyme fitness (log ratio)": -1.06},
      {"variant": "C11U C49A G107U G120A", "polymerase ribozyme fitness (log ratio)": -4.45}
    ]}
  ]
}
